B1: proteinase K: serine protease (protein, UniProt P06873 106-384, looked up)
Proteinase K: AAQTNAPWGLARISSTSPGTSTYYYDESAGQGSCVYVIDTGIEASHPEFEGRAQMVKTYYYSSRDGNGHGTHCAGTVGSRTYGVAKKTQLFGVKVLDDNGSGQYSTIIAGMDFVASDKNNRNCPKGVVASLSLGGGYSSSVNSAAARLQSSGVMVAVAAGNNNADARNYSPASEPSVCTVGASDRYDRRSSFSNYGSVLDIFGPGTSILSTWIGGSTRSISGTSMATPHVAGLAAYLMTLGKTTAASACRYIADTANKGDLSNIPFGTVNLLAYNNYQA
B2: chicken ovalbumin: chicken ovalbumin (protein, UniProt P01012 2-386, looked up)
Ovalbumin: GSIGAASMEFCFDVFKELKVHHANENIFYCPIAIMSALAMVYLGAKDSTRTQINKVVRFDKLPGFGDSIEAQCGTSVNVHSSLRDILNQITKPNDVYSFSLASRLYAEERYPILPEYLQCVKELYRGGLEPINFQTAADQARELINSWVESQTNGIIRNVLQPSSVDSQTAMVLVNAIVFKGLWEKAFKDEDTQAMPFRVTEQESKPVQMMYQIGLFRVASMASEKMKILELPFASGTMSMLVLLPDEVSGLEQLESIINFEKLTEWTSSNVMEERKIKVYLPRMKMEEKYNLTSVLMAMGITDVFSSSANLSGISSAESLKISQAVHAAHAEINEAGREVVGSAEAGVDAASVSEEFRADHPFLFCIKHIATNAVLFFGRCVSP
B3: plasmin: serine protease (protein, UniProt P00747 20-580; P00747 581-810, looked up)
Plasmin heavy chain A: EPLDDYVNTQGASLFSVTKKQLGAGSIEECAAKCEEDEEFTCRAFQYHSKEQQCVIMAENRKSSIIIRMRDVVLFEKKVYLSECKTGNGKNYRGTMSKTKNGITCQKWSSTSPHRPRFSPATHPSEGLEENYCRNPDNDPQGPWCYTTDPEKRYDYCDILECEEECMHCSGENYDGKISKTMSGLECQAWDSQSPHAHGYIPSKFPNKNLKKNYCRNPDRELRPWCFTTDPNKRWELCDIPRCTTPPPSSGPTYQCLKGTGENYRGNVAVTVSGHTCQHWSAQTPHTHNRTPENFPCKNLDENYCRNPDGKRAPWCHTTNSQVRWEYCKIPSCDSSPVSTEQLAPTAPPELTPVVQDCYHGDGQSYRGTSSTTTTGKKCQSWSSMTPHRHQKTPENYPNAGLTMNYCRNPDADKGPWCFTTDPSVRWEYCNLKKCSGTEASVVAPPPVVLLPDVETPSEEDCMFGNGKGYRGKRATTVTGTPCQDWAAQEPHRHSIFTPETNPRAGLEKNYCRNPDGDVGGPWCYTTNPRKLYDYCDVPQCAAPSFDCGKPQVEPKKCPGR
Plasmin light chain B: VVGGCVAHPHSWPWQVSLRTRFGMHFCGGTLISPEWVLTAAHCLEKSPRPSSYKVILGAHQEVNLEPHVQEIEVSRLFLEPTRKDIALLKLSSPAVITDKVIPACLPSPNYVVADRTECFITGWGETQGTFGAGLLKEAQLPVIENKVCNRYEFLNGRVQSTELCAGHLAGGTDSCQGDSGGPLVCFEKDKYILQGVTSWGLGCARPNKPGVYVRVSRFVTWIEGVMRNN
modifications: Plasmin
notes: serine protease
B4: STI: soybean trypsin inhibitor (protein, UniProt P01070 25-205, looked up)
Trypsin inhibitor A: DFVLDNEGNPLENGGTYYILSDITAFGGIRAAPTGNERCPLTVVQSRNELDKGIGTIISSPYRIRFIAEGHPLSLKFDSFAVIMLCVGIPTEWSVVEDLPEGPAVKIGENKDAMDGWFRLERVSDDEFNNYKLVFCPQQAEDDKCGDIGISIDHDDGTRRLVVSKNKPLVVQFQKLDKESL

Columns and labels:
[1] = tested on: iron loaded abeta42 aggregates mixed with CE proteins; test: Proteolysis of amyloid plaque complexes assembled on iron loaded abeta42 aggregates; assay type: biochemical; conditions: 20 ng protease, 37° C., 1 hr
Description: This example illustrates the use of the invention to evaluate the proteolytic degradation of the amyloid complexes. For example, iron loaded abeta42 aggregates are mixed with CE proteins, and the resulting template complexes are treated with five different serine proteases. More specifically, nine independent reactions are carried out with each containing 5.0 μg of the iron-loaded aggregates of abeta42 and 6.0 μg of the CE proteins. After incubation and washing, the complexes are suspended in 50 μl of PBS. The nine complexes are sub-divided into two groups, with six individual complexes comprising Group I and three complexes comprising Group II. In order to interrogate the role of the plasminogen (PLG) activation system, which is implicated in the catabolism of amyloid peptides as well as the pathobiology of amyloid diseases (Melchor J P et al, 2003; Van Nostrand W E et al, 1999; Kranenburg O, 2005), the Group II complexes are subjected to another cycle of binding with both PLG (0.5 μg) and BSA (0.5 μg) proteins. After binding and washing, the PLG and BSA bound plaques complexes are suspended in 50 μl of PBS.
For proteolysis analysis, five of the six Group I template complexes are incubated with 20 ng of each protease (plasnin, chymotrypsin, trypsin, proteinase K and urokinase). The remaining complex is used as a control without protease treatment. […]

[2] = target: iron-loaded abeta42 templates (Homo sapiens, UniProt P05067); test: Binding of proteins to iron-loaded abeta42 templates; conditions: SDS-PAGE
Description: FIG. 46 illustrates an example involving the identification of proteins that bind to iron-loaded abeta42 templates. The iron-loaded abeta42 templates are combined with known and unknown cell extracts (CE) and subjected to CPA, as described herein. To determine which proteins successfully bind the templates, the final template complexes are suspended in denaturing sample buffer, boiled, and loaded into SDS-PAGE gel. The gels are then stained with coomassie blue or silver stain in order to visualize the binding proteins. […] In the negative control, no significant binding is observed when the proteins are incubated in the absence of the templates.
In experiments such as these, known and unknown cell extract proteins that are used for the complex formation with the aggregates are diluted in PBS to a 1 mg/ml concentration and stored at −70° C. as 50 μl aliquots. These samples are thawed on ice and centrifuged (13000 rpm, 15 min, 4° C.) to remove any precipitation. The supernatant containing soluble proteins is used to form complexes with the aggregates. Various proteins are screened against the iron loaded abeta42 aggregates for examining their binding. […] The proteins in the gels are detected using coomassie blue or silver stain (Owl silver stain, Pierce, Ill., USA). […]

[3] = tested on: iron loaded prion or abeta40 templates; assay type: binding

Sequence of iron-loaded abeta42 templates (P05067 672-713 limits assumed): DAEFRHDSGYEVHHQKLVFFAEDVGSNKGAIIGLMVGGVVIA

Row | Molecule | Degradation of proteins bound to the aggregates [1] | further results
1 | B1 | degraded | 
2 | B2 |  | Binding with iron-loaded abeta42 templates [2]: no detectable binding
3 | B3 | degraded | 
4 | B4 |  | Binding with iron loaded prion or abeta40 templates [3]: no detectable binding
